Patent US20210388049A1 (1GLOBE BIOMEDICAL, published 2021)

B1: B2 anti-PDL1 antibody (antibody, human IgG1, lambda, V domains shown)
VH: EVQLVESGGGLVQPGGSLRLSCAASGFTFSDYDMIWVRQAPGKGLEWVAVISYDGSNKYYADSVKGRFTISRDNSKNTLYLQMNSLRAEDTAVYYCAKEFFGAFDIWGQGTMVTVSS
VL: SSELTQDPAVSVALGQTVTITCQGDSLNYYYANWFQLKPGQAPVLVLFGKNNRPSGIPDRFSGSYSGSTASLTITGAQAEDDADYYCNSRDSGGNPWVFGGGTKLTVLG
B2: E1 anti-PDL1 antibody (antibody, human IgG1, kappa, V domains shown)
VH: QIQLVQSGAEVKMPGASVTISCEASGYNFISYYIHWVRQAPGQGLEWMGFVVPSGGAAGYTQKFQGRLTVTRDTSTSTVYMDLNSLTSDDTAVYYCVREMSGGWFDFWGQGTLVTVSS
VL: DIVMTQSPSSLSASVGDRVTITCRASQGIRNDLGWYQQKPGKAPKLLIYAASTLQSGVPSRFSGSGSGTDFTLTISSLQAEDVAVYYCQQYYSTPLTFGPGTKVDIKR
notes: The full-length entries begin with the secretory leader; The constant region is human IgG1 type; also called parental antibody
B3: E3 anti-PDL1 antibody (antibody, human IgG1, kappa, V domains shown)
VH: QIQLVQSGAEVKKPGSSVKVSCKASGGTFSSYAISWVRQAPGQGLEWMGGIIPIFGTANYAQKFQGRVTITADKSTSTAYMELSSLRSEDTAVYYCAGGGAVADNSYWGQGTLVTVSS
VL: DIRMTQSPSSLSASVGDRVTITCRASQGIRNDLGWYQQKPGKAPKLLIYAASSLQSGVPSRFSGSGSGTDFTLTISSLQPEDFATYYCLQDYNYPRTFGQGTKVEIKR

Columns and labels:
[1] = molecular target: PDL1 coated on ELISA plates (UniProt Q9NZQ7 19-238, limits assumed); assay: receptor blocking ELISA, biotinylated Fc-PD1 binding to PDL1-coated plates, streptavidin-HRP
Source text: (§1) In both cases, binding was detected by using streptavidin linked horse radish peroxidase.

biotinylated Fc-PDL1 = molecular target: T1, biotinylated Fc-PDL1 (UniProt Q9NZQ7 19-238, limits assumed, biotinylated (site not stated)); assay: receptor blocking ELISA, biotinylated Fc-PDL1 binding to PD1-coated plates, streptavidin-HRP
T1 construct: The order of the parts follows the printed name; not shown: Fc portion
Source text: as §1

[2] = molecular target: T2, human PDL1 transgenically expressed on DLD1 cells (human, UniProt Q9NZQ7 19-290); assay: FACS on DLD1 cells expressing human PDL1, fluorescent anti-human-IgG detection; mean, SD 297
T2 construct: whole, on cells; also called cell surface PDL1; PDLL
Procedure: To test the ability of the proteins to bind cell surface PDL1, we used DLD1 cells expressing transgenically expressed human PDLL. […] Briefly, 10⁵ cells were incubated with different concentrations of the protein for 30 minutes at 4° C. Cells were washed with PBS and incubated with a fluorescent, anti-human-IgG antibody for 30 minutes at 4° C. Cells were again washed with PBS and binding was detected by FACS.

Sequence of PDL1 coated on ELISA plates (Q9NZQ7 19-238 limits assumed): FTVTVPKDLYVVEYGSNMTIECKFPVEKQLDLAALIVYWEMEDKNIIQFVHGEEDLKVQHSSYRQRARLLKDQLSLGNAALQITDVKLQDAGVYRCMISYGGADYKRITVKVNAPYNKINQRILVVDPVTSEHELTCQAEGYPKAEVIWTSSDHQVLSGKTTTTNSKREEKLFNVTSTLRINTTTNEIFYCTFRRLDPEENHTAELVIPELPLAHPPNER
T1 sequence (Q9NZQ7 19-238 limits assumed): as above
T2 sequence (Q9NZQ7 19-290): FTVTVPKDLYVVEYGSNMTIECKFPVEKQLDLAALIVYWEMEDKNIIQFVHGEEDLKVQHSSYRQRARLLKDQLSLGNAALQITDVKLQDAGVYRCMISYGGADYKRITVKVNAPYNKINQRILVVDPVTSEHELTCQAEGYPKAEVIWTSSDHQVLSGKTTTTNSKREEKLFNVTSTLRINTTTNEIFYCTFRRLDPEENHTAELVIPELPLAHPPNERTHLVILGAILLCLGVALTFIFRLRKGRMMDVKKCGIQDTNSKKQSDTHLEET

| IC50 [1] [nM] | IC50 (biotinylated Fc-PDL1) [nM] | EC50 [2] [nM] | Binder |
| --- | --- | --- | --- |
| 0.8 | 1.39 | – | B1 |
| 1.53 | 1.26 | 1.96 | B2 |
| 16.6 | 92.7 | – | B3 |
